The target of the assay is T1, human IL-23R endogenously expressed on DB cells (CRL-2289) (human, UniProt Q5VWK5 24-629).
T1 sequence (looked up): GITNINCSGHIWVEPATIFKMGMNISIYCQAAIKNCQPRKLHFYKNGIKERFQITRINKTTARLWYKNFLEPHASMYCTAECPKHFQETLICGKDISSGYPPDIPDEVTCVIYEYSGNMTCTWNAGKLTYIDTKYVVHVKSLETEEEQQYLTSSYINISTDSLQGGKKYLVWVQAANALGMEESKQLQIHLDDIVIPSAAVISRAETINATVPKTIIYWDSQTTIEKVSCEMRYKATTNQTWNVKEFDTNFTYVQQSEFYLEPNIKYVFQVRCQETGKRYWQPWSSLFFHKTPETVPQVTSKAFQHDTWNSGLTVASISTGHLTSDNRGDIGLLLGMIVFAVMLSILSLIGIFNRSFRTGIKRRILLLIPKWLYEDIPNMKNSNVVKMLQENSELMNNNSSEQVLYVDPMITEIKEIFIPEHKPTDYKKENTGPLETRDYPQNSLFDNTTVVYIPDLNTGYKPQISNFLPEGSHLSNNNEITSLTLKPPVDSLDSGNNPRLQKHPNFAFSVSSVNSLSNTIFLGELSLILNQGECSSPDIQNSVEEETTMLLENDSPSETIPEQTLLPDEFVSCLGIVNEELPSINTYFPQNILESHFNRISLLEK
Put plainly: cell-based or functional assay.

*1 amine or outer side, *2 acyl side, *3 side chain or, on linkers, in order; H or OH if unused. Bridges are numbered along the chain shown (N, C = ends). Primed or numbered codes have the meaning given here. Where no end group is shown, it is not given here. [ ]: non-standard residue; d: D form. 4‑Aminomethyl‑phenylacetyl = 4-aminomethyl-phenylacetyl unit, its amine closes the lactam, O=C(Cc1ccc(CN[*:1])cc1)[*:2]; 1,3‑dibromopropan‑2‑one = linker (CAS 816-39-7) joining two Cys as 1,3-dithio-propan-2-one bridge -SCH2C(=O)CH2S-; 1,3‑dibromopropan‑2‑one(3) = linker giving 1,3-dithio-propan-2-one bridge -SCH2C(=O)CH2S- between Cys; 4‑Aminomethyl‑phenylacetyl″ = N-terminal cap residue, O=C(Cc1ccc(CN[*:1])cc1)[*:2]; Pipz(1-CH2CO,4-CH2CH2NH) = O=C(CN1CCN(CCN[*:1])CC1)[*:2]; Trp(6-F) = N[C@@H](Cc1c[nH]c2cc(F)ccc12)C(=O)O; Trp(7-Me) = Cc1cccc2c(C[C@H](N)C(=O)O)c[nH]c12; 2Nal = N[C@@H](Cc1ccc2ccccc2c1)C(=O)O; AEF = NCCOc1ccc(C[C@H](N)C(=O)O)cc1; 3Pal = N[C@@H](Cc1cccnc1)C(=O)O; 4Pal = N[C@@H](Cc1ccncc1)C(=O)O; αMeL = CC(C)C[C@](C)(N)C(=O)O; CH2COCH2 = O=C(C[*:1])C[*:2]; αMeV = CC(C)[C@](C)(N)C(=O)O; 3Amb = NCc1cccc(C(=O)O)c1; dDab = NCC[C@@H](N)C(=O)O; Orn = NCCC[C@H](N)C(=O)O; Dab = NCC[C@H](N)C(=O)O; Ahx = NCCCCCC(=O)O; βAla = NCCC(=O)O Where only a bound is given, the exact number is not on record here.

B1: Compound 85 (peptide)
peptide: Ac-KTCWQC[AEF][2Nal][αMeL]E[dR]-NH2
modifications: lactam 1-10; linker 3-6 via CH2COCH2
SMILES: CC(=O)N[C@H]1CCCCNC(=O)CC[C@@H](C(=O)N[C@H](CCCNC(=N)N)C(N)=O)NC(=O)[C@](C)(CC(C)C)NC(=O)[C@H](Cc2ccc3ccccc3c2)NC(=O)[C@H](Cc2ccc(OCCN)cc2)NC(=O)[C@@H]2CSCC(=O)CSC[C@H](NC(=O)[C@H]([C@@H](C)O)NC1=O)C(=O)N[C@@H](Cc1c[nH]c3ccccc13)C(=O)N[C@@H](CCC(N)=O)C(=O)N2
For the molecule B1, the “IC50 (pSTAT3)” value was determined as 8.54 nM.

B2: Compound 70 (peptide)
peptide: [3Amb]SC[Trp(7-Me)]QC[AEF][2Nal][αMeL]ER-NH2
modifications: lactam (positions not given here); linker 3-6 via CH2COCH2; not fully specified (bridges)
On to B2, for which the “IC50 (pSTAT3)” value stood at 8.43 nM.

B3: Compound 124 (peptide)
peptide: [4‑Aminomethyl‑phenylacetyl]SEWQ[Orn][AEF][2Nal][αMeL]E[Dab][3Pal]-NH2
modifications: lactam N-10, 3-6
SMILES: CC(C)C[C@]1(C)NC(=O)[C@H](Cc2ccc3ccccc3c2)NC(=O)[C@H](Cc2ccc(OCCN)cc2)NC(=O)[C@@H]2CCCNC(=O)CC[C@H](NC(=O)[C@H](CO)NC(=O)Cc3ccc(cc3)CNC(=O)CC[C@@H](C(=O)N[C@@H](CCN)C(=O)N[C@@H](Cc3cccnc3)C(N)=O)NC1=O)C(=O)N[C@@H](Cc1c[nH]c3ccccc13)C(=O)N[C@@H](CCC(N)=O)C(=O)N2
On to B3, for which the “IC50 (pSTAT3)” value is 0.117 nM.

B4: Compound 87 (peptide)
peptide: [Ahx]SCWQC[AEF][2Nal][αMeL]E[dR]-NH2
modifications: lactam (positions not given here); linker 3-6 via CH2COCH2; not fully specified (bridges); printed as [6-Aminohexanoyl](1c)*SC(2a)WQC(2a)[Y(2-aminoethoxy)][2-Nal][2-Me-Leu]E(1c)[{d}R]-[NH2]
Regarding B4, the “IC50 (pSTAT3)” value worked out at 8.89 nM.

B5: Compound 90 (peptide)
peptide: [Pipz(1-CH2CO,4-CH2CH2NH)]SCWQC[AEF][2Nal][αMeL]E[dR]-NH2
modifications: lactam (positions not given here); linker 3-6 via CH2COCH2; not fully specified (bridges); printed as [(4-(2-Aminoethyl)-piperazine-1-yl)-acetyl](1c)*SC(2a)WQC(2a)[Y(2-aminoethoxy)][2-Nal][2-Me-Leu]E(1c)[{d}R]-[NH2]
For B5, the “IC50 (pSTAT3)” value is 15.8 nM.

Regarding [4‑Aminomethyl‑phenylacetyl]SCWQC[AEF][2Nal][αMeL]E[βAla]-NH2 (lactam N-10; linker 3-6 via 1,3‑dibromopropan‑2‑one(3)) [Compound 119], the “IC50 (pSTAT3)” value came to 16.7 nM.

For [4‑Aminomethyl‑phenylacetyl]SCWQC[AEF][Trp(6-F)][αMeL]E[Dab][3Pal]-NH2 (lactam N-10; linker 3-6 via 1,3‑dibromopropan‑2‑one(3)) [Compound 121], the “IC50 (pSTAT3)” value stood at 0.367 nM.

Consider [4‑Aminomethyl‑phenylacetyl]SCWQC[AEF][2Nal][αMeL]E[dR]-OH (lactam N-10; linker 3-6 via 1,3‑dibromopropan‑2‑one(3)) [Compound 108], for which the “IC50 (pSTAT3)” value was determined as 10.6 nM.

B6: Compound 69 (peptide)
peptide: [3Amb]SEWQ[Orn][AEF][2Nal][αMeL]ER-NH2
modifications: lactam (positions not given here); lactam 3-6; not fully specified (bridges); printed as [(3-Aminomethyl)benzoyl](1c)*SE(2c)WQ[Orn](2c)[Y(2-aminoethoxy)][2-Nal][2-Me-Leu]E(1c)R-[NH2]
In the case of B6, the “IC50 (pSTAT3)” value came out at 41.1 nM.

B7: Compound 68 (peptide)
peptide: [3Amb]S[Orn]WQE[AEF][2Nal][αMeL]ER-NH2
modifications: lactam (positions not given here); lactam 3-6; not fully specified (bridges); printed as [(3-Aminomethyl)benzoyl](1c)*S[Orn](2c)WQE(2c)[Y(2-aminoethoxy)][2-Nal][2-Me-Leu]E(1c)R-[NH2]
With B7, the “IC50 (pSTAT3)” value was 63.9 nM.

On to cyclo(DSCWQCWWLR) (linker 3-6 via 1,3‑dibromopropan‑2‑one) [Compound 6], for which the “IC50 (pSTAT3)” value was more than 1 µM.

In the case of [4‑Aminomethyl‑phenylacetyl]SCWQC[AEF][2Nal][αMeL]E[dDab]((2-(trimethyl-2-aminoethoxy)ethoxy)propyl)-NH2 (lactam N-10; linker 3-6 via 1,3‑dibromopropan‑2‑one(3)) [Compound 109], the “IC50 (pSTAT3)” value was 21.5 nM.

B8: Compound 79 (peptide)
peptide: [3Amb]SCWQC[AEF][2Nal][αMeL]ER[4Pal]-NH2
modifications: lactam (positions not given here); linker 3-6 via CH2COCH2; not fully specified (bridges); printed as [(3-Aminomethyl)benzoyl](1c)*SC(2a)WQC(2a)[Y(2-aminoethoxy)][2-Nal][2-Me-Leu]E(1c)R[3-(4-Pyridyl)-Ala]-[NH2]
For the molecule B8, the “IC50 (pSTAT3)” value stood at 21.3 nM.

B9: Compound 84 (peptide)
peptide: Ac-KSCWQC[AEF][2Nal][αMeL]E[dR]-NH2
modifications: lactam 1-10; linker 3-6 via CH2COCH2
SMILES: CC(=O)N[C@H]1CCCCNC(=O)CC[C@@H](C(=O)N[C@H](CCCNC(=N)N)C(N)=O)NC(=O)[C@](C)(CC(C)C)NC(=O)[C@H](Cc2ccc3ccccc3c2)NC(=O)[C@H](Cc2ccc(OCCN)cc2)NC(=O)[C@@H]2CSCC(=O)CSC[C@H](NC(=O)[C@H](CO)NC1=O)C(=O)N[C@@H](Cc1c[nH]c3ccccc13)C(=O)N[C@@H](CCC(N)=O)C(=O)N2
As to B9, the “IC50 (pSTAT3)” value was 12.5 nM.

B10: Compound 123 (peptide)
peptide: [4‑Aminomethyl‑phenylacetyl″]S[Dab]WQE[AEF][2Nal][αMeL]E[Dab][3Pal]-NH2
modifications: lactam N-10, 3-6
SMILES: CC(C)C[C@]1(C)NC(=O)[C@H](Cc2ccc3ccccc3c2)NC(=O)[C@H](Cc2ccc(OCCN)cc2)NC(=O)[C@@H]2CCC(=O)NCC[C@H](NC(=O)[C@H](CO)NC(=O)Cc3ccc(cc3)CNC(=O)CC[C@@H](C(=O)N[C@@H](CCN)C(=O)N[C@@H](Cc3cccnc3)C(N)=O)NC1=O)C(=O)N[C@@H](Cc1c[nH]c3ccccc13)C(=O)N[C@@H](CCC(N)=O)C(=O)N2
Turning to B10, the “IC50 (pSTAT3)” value was 25.3 pM.

On to [4‑Aminomethyl‑phenylacetyl]SCWQC[AEF][2Nal][αMeL]E[dQ]-NH2 (lactam N-10; linker 3-6 via 1,3‑dibromopropan‑2‑one(3)) [Compound 115], for which the “IC50 (pSTAT3)” value came to 18.9 nM.

Regarding [4‑Aminomethyl‑phenylacetyl″]SCWQC[AEF][2Nal][αMeL]E[dH]-NH2 (lactam N-10; linker 3-6 via 1,3‑dibromopropan‑2‑one(3)) [Compound 117], the “IC50 (pSTAT3)” value was 11.3 nM.

Turning to [3Amb]SEWQ[Dab][AEF][2Nal][αMeL]ER-NH2 (lactam (positions not given here); lactam 3-6; not fully specified (bridges)) [Compound 67], the “IC50 (pSTAT3)” value was 35.3 nM.

B11: Compound 136 (peptide)
peptide: [4‑Aminomethyl‑phenylacetyl]SEWQ[Dab][AEF][2Nal][αMeV]E[Dab]-NH2
modifications: lactam N-10, 3-6
SMILES: CC(C)[C@]1(C)NC(=O)[C@H](Cc2ccc3ccccc3c2)NC(=O)[C@H](Cc2ccc(OCCN)cc2)NC(=O)[C@@H]2CCNC(=O)CC[C@H](NC(=O)[C@H](CO)NC(=O)Cc3ccc(cc3)CNC(=O)CC[C@@H](C(=O)N[C@@H](CCN)C(N)=O)NC1=O)C(=O)N[C@@H](Cc1c[nH]c3ccccc13)C(=O)N[C@@H](CCC(N)=O)C(=O)N2
For the molecule B11, the “IC50 (pSTAT3)” value stood at 8.8 nM.

B12: Compound 126 (peptide)
peptide: [4‑Aminomethyl‑phenylacetyl]VEWQ[Dab][AEF][2Nal][αMeL]E[Dab]-NH2
modifications: lactam N-10, 3-6
SMILES: CC(C)C[C@]1(C)NC(=O)[C@H](Cc2ccc3ccccc3c2)NC(=O)[C@H](Cc2ccc(OCCN)cc2)NC(=O)[C@@H]2CCNC(=O)CC[C@H](NC(=O)[C@H](C(C)C)NC(=O)Cc3ccc(cc3)CNC(=O)CC[C@@H](C(=O)N[C@@H](CCN)C(N)=O)NC1=O)C(=O)N[C@@H](Cc1c[nH]c3ccccc13)C(=O)N[C@@H](CCC(N)=O)C(=O)N2
B12: the “IC50 (pSTAT3)” value was found to be 28 nM.

For the origin of these results see patent publication US20250154198A1, “PEPTIDE INHIBITORS OF INTERLEUKIN-23 RECEPTOR” (Zealand Pharma A/S, priority 2021, published 2025).
